{"source": "paper PMC11143224", "about": "“Flavivirus Zika NS4A protein forms large oligomers in liposomes and in mild detergent” (Scientific Reports, 2024)", "key": {"[1]": {"target": "the molecule itself", "assay": "AUC; sedimentation velocity, most diluted samples (detergent-to-protein ratio 640 and 320); 1 mM C14-betaine, 50 mM Tris-HCl pH 7.3, 100 mM NaCl, 2 mM TCEP, 33.4% D2O, 50,000 rpm, 25 °C, absorbance at 230 nm"}, "[2]": {"target": "the molecule itself", "assay": "cross-linking; purified NS4A (12 uM) in POPC/POPS (4:1) liposomes, lipid-to-protein ratios 40, 100 and 250; DSS 0.03-1.0 mM, or DSG, BS3, DSS, EGS, DSP at 0.25 mM, 15 min; SDS-PAGE and anti-His-tag Western blot"}, "[3]": {"target": "the molecule itself", "assay": "AUC; sedimentation equilibrium, multi-speed (15,000-33,000 rpm), 1 mM C14-betaine, 50 mM Tris-HCl pH 7.3, 100 mM NaCl, 2 mM TCEP, 33.4% D2O, absorbance at 280 nm; fitted in SEDPHAT; constant is of dimers to hexamer"}}, "data": [{"protein": "full-length Zika NS4A protein (strain MR-766) (natural protein, NS4A of Zika virus strain MR-766, the cut product of the polyprotein (mature NS4A without 2K), 127 residues (1-127); also called ZIKV NS4A; NS4A-FL; not shown: His-tag, N-terminal, kept) GAALGVMEALGTLPGHMTERFQEAIDNLAVLMRAETGSRPYKAAAAQLPETLETIMLLGLLGTVSLGIFFVLMRNKGIGKMGFGMVTLGASAWLMWLSEIEPARIACVLIVVFLLLVVLIPEPEKQR", "values": [{"measurement": "stoichiometry N", "setting": "[1]", "value": 2}, {"measurement": "stoichiometry N", "setting": "[2]", "value": "≥ 6"}, {"measurement": "stoichiometry N", "setting": "[3]", "value": 6}]}]}
